Consider two proteins from ChEMBL document CHEMBL2073963, “Transport of methotrexate (MTX) and folates by multidrug resistance protein (MRP) 3 and MRP1: effect of polyglutamylation on MTX transport” (Cancer Res, 2001).

What all share (format): functional, cell membranes
Substrate in series [1]: CN(Cc1cnc2nc(N)nc(N)c2n1)c1ccc(C(=O)N[C@@H](CCC(=O)O)C(=O)O)cc1
Kind of series: TP_TRANSPORTER: uptake in membrane vesicle from MRP1-expressing NIH3T3 cells.

Substrate in series [2]: Nc1nc(=O)c2nc(CNc3ccc(C(=O)N[C@@H](CCC(=O)O)C(=O)O)cc3)cnc2[nH]1
The experiment in a line: (§1) TP_TRANSPORTER: uptake in membrane vesicles from MRP3-expressing HEK293 cells. The settings on record: Membrane vesicle.

Substrate in series [3]: Nc1nc(=O)c2c([nH]1)NCC(CNc1ccc(C(=O)N[C@@H](CCC(=O)O)C(=O)O)cc1)N2C=O
Described as §1. The settings on record: Membrane vesicle.

Substrate in series [4]: CN(Cc1cnc2nc(N)nc(N)c2n1)c1ccc(C(=O)N[C@@H](CCC(=O)O)C(=O)O)cc1
Described as §1. The note with it: Membrane vesicle.

Broadly, the Km is the substrate concentration at which the rate is half of its maximum.

B1: Multidrug resistance-associated protein 1 (Homo sapiens) (protein)
chain: MALRGFCSADGSDPLWDWNVTWNTSNPDFTKCFQNTVLVWVPCFYLWACFPFYFLYLSRHDRGYIQMTPLNKTKTALGFLLWIVCWADLFYSFWERSRGIFLAPVFLVSPTLLGITMLLATFLIQLERRKGVQSSGIMLTFWLVALVCALAILRSKIMTALKEDAQVDLFRDITFYVYFSLLLIQLVLSCFSDRSPLFSETIHDPNPCPESSASFLSRITFWWITGLIVRGYRQPLEGSDLWSLNKEDTSEQVVPVLVKNWKKECAKTRKQPVKVVYSSKDPAQPKESSKVDANEEVEALIVKSPQKEWNPSLFKVLYKTFGPYFLMSFFFKAIHDLMMFSGPQILKLLIKFVNDTKAPDWQGYFYTVLLFVTACLQTLVLHQYFHICFVSGMRIKTAVIGAVYRKALVITNSARKSSTVGEIVNLMSVDAQRFMDLATYINMIWSAPLQVILALYLLWLNLGPSVLAGVAVMVLMVPVNAVMAMKTKTYQVAHMKSKDNRIKLMNEILNGIKVLKLYAWELAFKDKVLAIRQEELKVLKKSAYLSAVGTFTWVCTPFLVALCTFAVYVTIDENNILDAQTAFVSLALFNILRFPLNILPMVISSIVQASVSLKRLRIFLSHEELEPDSIERRPVKDGGGTNSITVRNATFTWARSDPPTLNGITFSIPEGALVAVVGQVGCGKSSLLSALLAEMDKVEGHVAIKGSVAYVPQQAWIQNDSLRENILFGCQLEEPYYRSVIQACALLPDLEILPSGDRTEIGEKGVNLSGGQKQRVSLARAVYSNADIYLFDDPLSAVDAHVGKHIFENVIGPKGMLKNKTRILVTHSMSYLPQVDVIIVMSGGKISEMGSYQELLARDGAFAEFLRTYASTEQEQDAEENGVTGVSGPGKEAKQMENGMLVTDSAGKQLQRQLSSSSSYSGDISRHHNSTAELQKAEAKKEETWKLMEADKAQTGQVKLSVYWDYMKAIGLFISFLSIFLFMCNHVSALASNYWLSLWTDDPIVNGTQEHTKVRLSVYGALGISQGIAVFGYSMAVSIGGILASRCLHVDLLHSILRSPMSFFERTPSGNLVNRFSKELDTVDSMIPEVIKMFMGSLFNVIGACIVILLATPIAAIIIPPLGLIYFFVQRFYVASSRQLKRLESVSRSPVYSHFNETLLGVSVIRAFEEQERFIHQSDLKVDENQKAYYPSIVANRWLAVRLECVGNCIVLFAALFAVISRHSLSAGLVGLSVSYSLQVTTYLNWLVRMSSEMETNIVAVERLKEYSETEKEAPWQIQETAPPSSWPQVGRVEFRNYCLRYREDLDFVLRHINVTINGGEKVGIVGRTGAGKSSLTLGLFRINESAEGEIIIDGINIAKIGLHDLRFKITIIPQDPVLFSGSLRMNLDPFSQYSDEEVWTSLELAHLKDFVSALPDKLDHECAEGGENLSVGQRQLVCLARALLRKTKILVLDEATAAVDLETDDLIQSTIRTQFEDCTVLTIAHRLNTIMDYTRVIVLDKGEIQEYGAPSDLLQQRGLFYSMAKDAGLV
For B1, the Km in series [1] was 2150 µM.

B2: Multidrug resistance associated protein (Homo sapiens), Q96QA9 (protein)
chain: MDALCGSGELGSKFWDSNLSVHTENPDLTPCFQNSLLAWVPCIYLWVALPCYLLYLRHHCRGYIILSHLSKLKMVLGVLLWCVSWADLFYSFHGLVHGRAPAPVFFVTPLVVGVTMLLATLLIQYERLQGVQSSGVLIIFWFLCVVCAIVPFRSKILLAKAEGEISDPFRFTTFYIHFALVLSALILACFREKPPFFSAKNVDPNPYPETSAGFLSRLFFWWFTKMAIYGYRHPLEEKDLWSLKEEDRSQMVVQQLLEAWRKQEKQTARHKASAAPGKNASGEDEVLLGARPRPRKPSFLKALLATFGSSFLISACFKLIQDLLSFINPQLLSILIRFISNPMAPSWWGFLVAGLMFLCSMMQSLILQHYYHYIFVTGVKFRTGIMGVIYRKALVITNSVKRASTVGEIVNLMSVDAQRFMDLAPFLNLLWSAPLQIILAIYFLWQNLGPSVLAGVAFMVLLIPLNGAVAVKMRAFQVKQMKLKDSRIKLMSEILNGIKVLKLYAWEPSFLKQVEGIRQGELQLLRTAAYLHTTTTFTWMCSPFLVTLITLWVYVYVDPNNVLDAEKAFVSVSLFNILRLPLNMLPQLISNLTQASVSLKRIQQFLSQEELDPQSVERKTISPGYAITIHSGTFTWAQDLPPTLHSLDIQVPKGALVAVVGPVGCGKSSLVSALLGEMEKLEGKVHMKGSVAYVPQQAWIQNCTLQENVLFGKALNPKRYQQTLEACALLADLEMLPGGDQTEIGEKGINLSGGQRQRVSLARAVYSDADIFLLDDPLSAVDSHVAKHIFDHVIGPEGVLAGKTRVLVTHGISFLPQTDFIIVLADGQVSEMGPYPALLQRNGSFANFLCNYAPDEDQGHLEDSWTALEGAEDKEALLIEDTLSNHTDLTDNDPVTYVVQKQFMRQLSALSSDGEGQGRPVPRRHLGPSEKVQVTEAKADGALTQEEKAAIGTVELSVFWDYAKAVGLCTTLAICLLYVGQSAAAIGANVWLSAWTNDAMADSRQNNTSLRLGVYAALGILQGFLVMLAAMAMAAGGIQAARVLHQALLHNKIRSPQSFFDTTPSGRILNCFSKDIYVVDEVLAPVILMLLNSFFNAISTLVVIMASTPLFTVVILPLAVLYTLVQRFYAATSRQLKRLESVSRSPIYSHFSETVTGASVIRAYNRSRDFEIISDTKVDANQRSCYPYIISNRWLSIGVEFVGNCVVLFAALFAVIGRSSLNPGLVGLSVSYSLQVTFALNWMIRMMSDLESNIVAVERVKEYSKTETEAPWVVEGSRPPEGWPPRGEVEFRNYSVRYRPGLDLVLRDLSLHVHGGEKVGIVGRTGAGKSSMTLCLFRILEAAKGEIRIDGLNVADIGDPILFSGTLRMNLDPFGSYSEEDIWWALELSHLHTFVSSQPAGLDFQCSEGGENLSVGQRQLVCLARALLRKSRILVLDEATAAIDLETDNLIQATIRTQFDTCTVLTIAHRLNTIMDYTRVLVLDKGVVAEFDSPANLIAARGIFYGMARDAGLA
With B2, the Km in series [2] worked out at 1960 µM; in series [3], 1740 µM; in series [4] it was 620 µM.
